Measurements from patent US20100184701A1 (TREVENA, published 2010).
Non-standard residues stand in square brackets, D forms with d. No end group written: not given here. Sar = CNCC(=O)O

T1: human angiotensin 2 type 1 receptor (human, UniProt P30556 1-359)
T1 sequence (looked up): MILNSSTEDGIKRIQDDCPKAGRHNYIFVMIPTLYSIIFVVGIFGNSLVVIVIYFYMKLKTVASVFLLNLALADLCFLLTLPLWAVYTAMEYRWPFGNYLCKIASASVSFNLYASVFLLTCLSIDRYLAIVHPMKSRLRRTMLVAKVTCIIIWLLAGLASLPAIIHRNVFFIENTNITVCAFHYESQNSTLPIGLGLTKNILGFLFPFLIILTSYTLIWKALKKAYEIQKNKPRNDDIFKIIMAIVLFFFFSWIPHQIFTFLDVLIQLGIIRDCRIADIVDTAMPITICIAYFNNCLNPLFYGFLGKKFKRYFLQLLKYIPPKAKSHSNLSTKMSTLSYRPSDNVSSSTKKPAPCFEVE

T2: rat angiotensin 2 type 1 receptor (rat, UniProt P25095 1-359)
T2 sequence (looked up): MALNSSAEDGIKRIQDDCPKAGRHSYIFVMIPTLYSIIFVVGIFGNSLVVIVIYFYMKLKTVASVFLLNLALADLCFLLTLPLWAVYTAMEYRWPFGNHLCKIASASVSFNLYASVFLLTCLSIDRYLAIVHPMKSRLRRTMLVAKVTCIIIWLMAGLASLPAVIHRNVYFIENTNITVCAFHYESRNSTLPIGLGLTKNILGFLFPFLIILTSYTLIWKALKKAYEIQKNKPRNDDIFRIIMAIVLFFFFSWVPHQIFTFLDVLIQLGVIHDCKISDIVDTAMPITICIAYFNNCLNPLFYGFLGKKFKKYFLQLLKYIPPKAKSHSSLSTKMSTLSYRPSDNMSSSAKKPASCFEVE

B1: SEQ ID NO: 38 (peptide)
peptide: VYIHPF
modifications: cyclic, as printed: Cyclo(...)
B2: SEQ ID NO: 41 (peptide)
peptide: [Sar]RVYFHP-NH2
modifications: N-terminus assumed
SMILES: CNCC(=O)N[C@@H](CCCNC(=N)N)C(=O)N[C@H](C(=O)N[C@@H](Cc1ccc(O)cc1)C(=O)N[C@@H](Cc1ccccc1)C(=O)N[C@@H](Cc1c[nH]cn1)C(=O)N1CCC[C@H]1C(N)=O)C(C)C
B3: SEQ ID NO: 40 (peptide)
peptide: [Sar]RVYEHP-NH2
modifications: N-terminus assumed
SMILES: CNCC(=O)N[C@@H](CCCNC(=N)N)C(=O)N[C@H](C(=O)N[C@@H](Cc1ccc(O)cc1)C(=O)N[C@@H](CCC(=O)O)C(=O)N[C@@H](Cc1c[nH]cn1)C(=O)N1CCC[C@H]1C(N)=O)C(C)C
B4: SEQ ID NO: 36 (peptide)
peptide: RVYIHPRVYIHPRVYIHP
modifications: cyclic, as printed: Cyclo(...)
B5: SEQ ID NO: 31 (peptide)
peptide: GRVYVHPA
modifications: Me2G (N,N-dimethylglycine) at 1
B6: SEQ ID NO: 32 (peptide)
peptide: GRVYIHPA
modifications: Me2G (N,N-dimethylglycine) at 1
B7: SEQ ID NO: 33 (peptide)
peptide: ARVYVHPA
modifications: NMAla (N-methyl-L-alanine) at 1
B8: SEQ ID NO: 37 (peptide)
peptide: FVYIHPFVYIHPFVYIHP
modifications: cyclic, as printed: Cyclo(...)
B9: SEQ ID NO: 42 (peptide)
peptide: [Sar]RVYHHP-NH2
modifications: N-terminus assumed
SMILES: CNCC(=O)N[C@@H](CCCNC(=N)N)C(=O)N[C@H](C(=O)N[C@@H](Cc1ccc(O)cc1)C(=O)N[C@@H](Cc1c[nH]cn1)C(=O)N[C@@H](Cc1c[nH]cn1)C(=O)N1CCC[C@H]1C(N)=O)C(C)C
B10: SEQ ID NO: 25 (peptide)
peptide: DRVYIHPA
B11: SEQ ID NO: 34 (peptide)
peptide: ARVYIHPA
modifications: NMAla (N-methyl-L-alanine) at 1

Key:
[1] = target: T1, human angiotensin 2 type 1 receptor; test: cell-based or functional assay
[2] = target: T2, rat angiotensin 2 type 1 receptor; test: cell-based or functional assay

Binder	IP One EC50 (M) [1]	b-arrestin2 EC50 [1]	b-arrestin2 Max (%) [1]	IP One Max (%) [2]	b-arrestin2 EC50 [2]	b-arrestin2 Max (%) [2]	IP One EC50 (M) [2]	IP One EC50 [2]
B1	> 1e-05 M	680 nM	43.1%	20.8%	2500 nM	66.4%	–	–
B2	> 1e-05 M	1600 nM	30.1%	–	660 nM	53.1%	> 1e-05 M	–
B3	> 1e-05 M	95 nM	53.2%	–	31 nM	87.9%	> 1e-05 M	–
B4	> 1e-05 M	1200 nM	39.5%	19.2%	1900 nM	32.8%	–	100 nM
B5	–	100 nM	58.1%	6.2%	–	75.9%	–	13 nM
B6	–	–	55.6%	6.8%	–	80.2%	–	–
B7	> 1e-05 M	–	54.9%	–	31 nM	86.9%	> 1e-05 M	–
B8	> 1e-05 M	–	62.3%	14.7%	1900 nM	60.7%	–	–
B9	> 1e-05 M	630 nM	46.4%	–	270 nM	74.9%	> 1e-05 M	–
B10	–	–	57.9%	14.1%	–	77%	–	–
B11	> 1e-05 M	25 nM	53%	–	32 nM	81.7%	> 1e-05 M	–
